Source: paper PMC6222848, “Spatial Overlap of Claudin- and Phosphatidylinositol Phosphate-Binding Sites on the First PDZ Domain of Zonula Occludens 1 Studied by NMR” (Molecules : A Journal of Synthetic Chemistry and Natural …, 2018)

B1: GST-tagged mouse ZO-1(PDZ1) (residues 18–110) [mouse] / His6-tagged thioredoxin (Trx) fusion protein of mouse CLD-3 C-terminus (Trx-CLD3, residues 210–219) [mouse] (parent)
chain 1: IWEQHTVTLHRAPGFGFGIAISGGRDNPHFQSGETSIVISDVLKGGPAEGQLQENDRVAMVNGVSMDNVEHAFAVQQLRKSGKNAKITIRRKK
chain 2: GTAYDRKDYV

Variants of: B1
Experiment: SPR
Conditions: with His6-tagged thioredoxin (Trx) fusion protein of mouse CLD-3 C-terminus (Trx-CLD3, residues 210–219) [mouse], read off a plot
[1] = absence of phytic acid (gray bar), parent: 1.2e+03
[2] = presence of 10 mM phytic acid (InsP6) (black bar), parent: 530

Variant	response [1] [RU]	response [2] [RU]
chain 1 K80A	1400	460
chain 1 K83A	1300	480
chain 1 R11A	340	78
